# Measured values: patent publication US20250313611A1
# Several values for one entry are separate records, joined by “and”; a condition that tells them apart may be missing. Equal values may be shown once.
# Molecular target: spike proteins of the tested omicron
# Assay: cell-based or functional assay
binder,measurement,value
VHH R3_DC23 (VHH) VHH: QVQLQESGGGLVQAGDSLTLSCAVSGRIFSTYTMGWFRQAPGKEREFVAAVRWGAGTIYYADSMKGRFTISRDSAKNTVDLQMNSTKPEDTAVYYCGAAYVSKANYGSLWYQDSRRYDYWGQGTQVTVSS,"IC50, neutralisation of VSV spike pseudotypes",2.9 ng/mL and 5.7 ng/mL
